Laboratory results as given in paper PMC6168507 (2018).

Target: LRP-1 (Homo sapiens, UniProt Q07954)
Test: ELISA

Sequence of LRP-1 (Q07954 20-4544): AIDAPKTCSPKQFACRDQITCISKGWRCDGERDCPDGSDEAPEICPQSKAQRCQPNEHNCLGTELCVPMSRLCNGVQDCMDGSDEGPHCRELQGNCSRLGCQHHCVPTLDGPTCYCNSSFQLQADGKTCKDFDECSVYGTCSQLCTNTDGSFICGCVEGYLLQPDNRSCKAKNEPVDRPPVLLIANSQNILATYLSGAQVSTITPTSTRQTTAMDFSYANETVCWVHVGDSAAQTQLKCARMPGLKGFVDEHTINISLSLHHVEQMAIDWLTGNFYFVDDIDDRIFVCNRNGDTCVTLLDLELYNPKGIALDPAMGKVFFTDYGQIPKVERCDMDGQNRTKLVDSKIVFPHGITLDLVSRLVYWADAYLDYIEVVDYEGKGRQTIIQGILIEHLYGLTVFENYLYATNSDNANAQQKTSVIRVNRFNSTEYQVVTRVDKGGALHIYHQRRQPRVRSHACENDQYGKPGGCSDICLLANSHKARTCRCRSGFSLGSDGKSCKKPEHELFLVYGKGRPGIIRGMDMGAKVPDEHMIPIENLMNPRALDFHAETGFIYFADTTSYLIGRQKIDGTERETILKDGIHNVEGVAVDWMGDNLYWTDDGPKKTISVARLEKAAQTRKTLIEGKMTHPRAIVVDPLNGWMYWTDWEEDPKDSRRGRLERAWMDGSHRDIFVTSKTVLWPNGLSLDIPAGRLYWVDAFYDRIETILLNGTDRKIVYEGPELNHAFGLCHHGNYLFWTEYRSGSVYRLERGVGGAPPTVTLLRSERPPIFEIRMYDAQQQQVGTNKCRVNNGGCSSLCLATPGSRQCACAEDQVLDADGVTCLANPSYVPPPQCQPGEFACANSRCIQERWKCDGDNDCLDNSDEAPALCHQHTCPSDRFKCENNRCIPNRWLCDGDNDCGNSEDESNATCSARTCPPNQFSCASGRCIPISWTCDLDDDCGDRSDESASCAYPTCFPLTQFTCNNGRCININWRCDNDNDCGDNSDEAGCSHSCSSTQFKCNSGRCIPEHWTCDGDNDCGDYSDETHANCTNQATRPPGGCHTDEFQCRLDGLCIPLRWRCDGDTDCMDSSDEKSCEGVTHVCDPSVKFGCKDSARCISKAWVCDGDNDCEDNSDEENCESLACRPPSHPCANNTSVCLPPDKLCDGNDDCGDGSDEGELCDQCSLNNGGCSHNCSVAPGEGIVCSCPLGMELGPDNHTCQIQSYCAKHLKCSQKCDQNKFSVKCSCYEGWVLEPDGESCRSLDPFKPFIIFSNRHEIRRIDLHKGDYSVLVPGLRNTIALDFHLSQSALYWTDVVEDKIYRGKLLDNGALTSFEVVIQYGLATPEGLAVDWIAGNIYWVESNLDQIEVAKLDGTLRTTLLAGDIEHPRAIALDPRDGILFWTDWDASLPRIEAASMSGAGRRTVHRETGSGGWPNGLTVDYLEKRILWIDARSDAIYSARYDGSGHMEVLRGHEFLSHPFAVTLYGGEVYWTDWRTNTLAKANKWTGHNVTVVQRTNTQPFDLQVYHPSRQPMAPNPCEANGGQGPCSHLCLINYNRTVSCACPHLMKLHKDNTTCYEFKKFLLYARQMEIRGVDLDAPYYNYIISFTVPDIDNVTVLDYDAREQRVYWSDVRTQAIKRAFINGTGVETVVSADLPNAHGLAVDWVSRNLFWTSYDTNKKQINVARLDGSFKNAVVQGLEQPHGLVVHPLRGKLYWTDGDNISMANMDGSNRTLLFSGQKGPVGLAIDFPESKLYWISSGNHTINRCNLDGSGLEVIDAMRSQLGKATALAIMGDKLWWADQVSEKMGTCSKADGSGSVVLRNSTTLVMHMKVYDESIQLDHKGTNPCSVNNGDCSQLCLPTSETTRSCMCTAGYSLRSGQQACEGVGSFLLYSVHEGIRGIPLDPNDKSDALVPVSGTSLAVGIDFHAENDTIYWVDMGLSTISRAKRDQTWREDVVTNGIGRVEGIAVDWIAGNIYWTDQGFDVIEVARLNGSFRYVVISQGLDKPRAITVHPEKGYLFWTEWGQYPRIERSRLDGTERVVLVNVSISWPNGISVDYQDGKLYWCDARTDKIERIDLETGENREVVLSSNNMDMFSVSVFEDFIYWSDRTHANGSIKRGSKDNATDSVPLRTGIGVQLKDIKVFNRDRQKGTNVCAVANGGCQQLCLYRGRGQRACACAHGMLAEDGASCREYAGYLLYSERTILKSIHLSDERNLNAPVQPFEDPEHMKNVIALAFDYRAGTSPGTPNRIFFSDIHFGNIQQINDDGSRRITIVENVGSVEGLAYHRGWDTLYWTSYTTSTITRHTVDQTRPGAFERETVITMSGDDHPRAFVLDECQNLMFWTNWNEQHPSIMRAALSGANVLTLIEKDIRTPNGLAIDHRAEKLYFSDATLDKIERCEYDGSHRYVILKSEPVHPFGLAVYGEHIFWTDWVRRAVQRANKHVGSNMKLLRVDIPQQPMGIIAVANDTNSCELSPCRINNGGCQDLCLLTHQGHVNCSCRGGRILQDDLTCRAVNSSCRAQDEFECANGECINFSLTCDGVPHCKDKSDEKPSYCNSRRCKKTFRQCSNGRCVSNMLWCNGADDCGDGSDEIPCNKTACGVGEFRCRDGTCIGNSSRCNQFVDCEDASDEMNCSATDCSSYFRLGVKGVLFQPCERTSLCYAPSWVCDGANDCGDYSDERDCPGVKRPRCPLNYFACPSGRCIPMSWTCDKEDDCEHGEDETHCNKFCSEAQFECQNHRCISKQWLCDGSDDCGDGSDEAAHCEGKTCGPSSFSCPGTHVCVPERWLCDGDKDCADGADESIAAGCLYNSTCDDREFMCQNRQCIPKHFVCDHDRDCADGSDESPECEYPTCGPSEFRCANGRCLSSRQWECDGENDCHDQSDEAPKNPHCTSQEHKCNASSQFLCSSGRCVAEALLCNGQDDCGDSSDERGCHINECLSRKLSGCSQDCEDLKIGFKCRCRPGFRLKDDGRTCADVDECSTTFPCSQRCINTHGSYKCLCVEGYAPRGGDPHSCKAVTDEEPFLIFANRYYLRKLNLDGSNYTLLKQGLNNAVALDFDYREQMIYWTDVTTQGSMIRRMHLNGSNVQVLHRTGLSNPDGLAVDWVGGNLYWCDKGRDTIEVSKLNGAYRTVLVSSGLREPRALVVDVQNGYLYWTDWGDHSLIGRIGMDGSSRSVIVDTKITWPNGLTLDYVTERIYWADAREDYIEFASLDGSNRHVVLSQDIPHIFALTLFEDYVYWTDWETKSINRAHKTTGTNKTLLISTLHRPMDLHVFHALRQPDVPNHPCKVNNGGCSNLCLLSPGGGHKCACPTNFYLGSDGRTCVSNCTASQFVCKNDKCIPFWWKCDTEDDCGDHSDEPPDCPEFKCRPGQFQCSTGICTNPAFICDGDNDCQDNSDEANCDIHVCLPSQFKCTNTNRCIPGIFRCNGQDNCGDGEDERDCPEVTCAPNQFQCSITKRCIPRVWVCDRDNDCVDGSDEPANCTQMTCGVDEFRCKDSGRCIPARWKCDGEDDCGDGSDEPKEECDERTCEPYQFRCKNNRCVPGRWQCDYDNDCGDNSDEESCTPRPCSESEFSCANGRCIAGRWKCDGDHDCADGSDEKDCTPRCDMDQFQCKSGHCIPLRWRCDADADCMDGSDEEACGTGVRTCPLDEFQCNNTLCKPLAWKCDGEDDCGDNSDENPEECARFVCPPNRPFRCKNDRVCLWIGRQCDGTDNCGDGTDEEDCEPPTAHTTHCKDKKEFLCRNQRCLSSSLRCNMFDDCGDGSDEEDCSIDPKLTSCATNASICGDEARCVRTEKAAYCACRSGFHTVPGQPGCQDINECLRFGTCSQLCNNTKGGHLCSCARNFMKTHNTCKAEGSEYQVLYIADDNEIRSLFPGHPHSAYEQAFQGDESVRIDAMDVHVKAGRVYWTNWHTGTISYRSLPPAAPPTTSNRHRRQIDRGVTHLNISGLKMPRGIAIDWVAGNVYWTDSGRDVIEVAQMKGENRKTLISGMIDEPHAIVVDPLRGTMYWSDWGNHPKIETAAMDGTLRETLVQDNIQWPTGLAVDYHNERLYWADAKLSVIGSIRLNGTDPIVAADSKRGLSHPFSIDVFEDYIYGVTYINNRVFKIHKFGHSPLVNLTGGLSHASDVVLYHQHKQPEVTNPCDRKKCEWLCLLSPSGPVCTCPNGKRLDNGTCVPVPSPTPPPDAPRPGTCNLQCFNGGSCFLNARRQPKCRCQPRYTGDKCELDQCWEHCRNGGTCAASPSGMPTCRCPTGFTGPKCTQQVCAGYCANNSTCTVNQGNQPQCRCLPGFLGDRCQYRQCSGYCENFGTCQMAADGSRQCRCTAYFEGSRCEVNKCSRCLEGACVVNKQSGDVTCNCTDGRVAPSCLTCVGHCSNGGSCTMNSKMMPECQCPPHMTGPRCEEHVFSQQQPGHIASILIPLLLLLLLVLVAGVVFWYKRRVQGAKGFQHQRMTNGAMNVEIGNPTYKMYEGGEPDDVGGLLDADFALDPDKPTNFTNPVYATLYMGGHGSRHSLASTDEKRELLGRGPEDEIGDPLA

Kd: 16 nM
B1: TIMP-1 (protein)
chain: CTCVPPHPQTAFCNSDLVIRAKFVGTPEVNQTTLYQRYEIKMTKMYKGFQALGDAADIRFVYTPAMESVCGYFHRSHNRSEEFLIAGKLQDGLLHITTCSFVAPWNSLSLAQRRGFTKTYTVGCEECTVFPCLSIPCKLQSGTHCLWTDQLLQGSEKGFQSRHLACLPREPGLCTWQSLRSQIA
